# Assay results reported in article PMC8384158.
# B1: TAP–Bag-1S [human] / Calnexin [human (endogenous in MCF-7 and MCF-12A)] (parent)
# chain 1: MNRSQEVTRDEESTRSEEVTREEMAAAGLTVTVTHSNEKHDLHVTSQQGSSEPVVQDLAQVVEEVIGVPQSFQKLIFKGKSLKEMETPLSALGIQDGCRVMLIGKKNSPQEEVELKKLKHLEKSVEKIADQLEELNKELTGIQQGFLPKDLQAEALCKLDRRVKATIEQFMKILEEIDTLILPENFKDSRLKRKGLVKKVQAFLAECDTVEQNICQETERLQSTNFALAE
# chain 2: HDGHDDDVIDIEDDLDDVIEEVEDSKPDTTAPPSSPKVTYKAPVPTGEVYFADSFDRGTLSGWILSKAKKDDTDDEIAKYDGKWEVEEMKESKLPGDKGLVLMSRAKHHAISAKLNKPFLFDTKPLIVQYEVNFQNGIECGGAYVKLLSKTPELNLDQFHDKTPYTIMFGPDKCGEDYKLHFIFRHKNPKTGIYEEKHAKRPDADLKTYFTDKKTHLYTLILNPDNSFEILVDQSVVNSGNLLNDMTPPVNPSREIEDPEDRKPEDWDERPKIPDPEAVKPDDWDEDAPAKIPDEEATKPEGWLDDEPEYVPDPDAEKPEDWDEDMDGEWEAPQIANPRCESAPGCGVWQRPVIDNPNYKGKWKPPMIDNPSYQGIWKPRKIPNPDFFEDLEPFRMTPFSAIGLELWSMTSDIFFDNFIICADRRIVDDWANDGWGLKKAADGAAEPGVVGQMIEAAEERPWLWVVYILTVALPVFLVILFCCSGKKQTSGMEYKKTDAPQPDVKEEEEEKEEEKDKGDEEEEGEEKLEEKQKSDAEEDGGTVSQEEEDRKPKAEEDEILNRSPRNRKPRRE
# B2: TAP–Bag-1S [human] / PDIA3 [human (endogenous in MCF-7 and MCF-12A)] (parent)
# chain 1: B1 chain 1
# chain 2: SDVLELTDDNFESRISDTGSAGLMLVEFFAPWCGHCKRLAPEYEAAATRLKGIVPLAKVDCTANTNTCNKYGVSGYPTLKIFRDGEEAGAYDGPRTADGIVSHLKKQAGPASVPLRTEEEFKKFISDKDASIVGFFDDSFSEAHSEFLKAASNLRDNYRFAHTNVESLVNEYDDNGEGIILFRPSHLTNKFEDKTVAYTEQKMTSGKIKKFIQENIFGICPHMTEDNKDLIQGKDLLIAYYDVDYEKNAKGSNYWRNRVMMVAKKFLDAGHKLNFAVASRKTFSHELSDFGLESTAGEIPVVAIRTAKGEKFVMQEEFSRDGKALERFLQDYFDGNLKRYLKSEPIPESNDGPVKVVVAENFDEIVNNENKDVLIEFYAPWCGHCKNLEPKYKELGEKLSKDPNIVIAKMDATANDVPSPYEVRGFPTIYFSPANKKLNPKKYEGGRELSDFISYLQREATNPPVIQEEKPKKKKKAQEDL
# Variants of: B1
# Assay: TAP pull-down interactome analysis (LC-MS/MS)
# Conditions: with Calnexin [human (endogenous in MCF-7 and MCF-12A)]; MCF-7 cells; read off a plot
row,screen value,Variant
1,-0.55 log2,chain 1 R193D
2,-1.1 log2,chain 1 I103K
3,-1.6 log2,chain 1 R161D
4,-1.1 log2,chain 1 R162E

# Variants of: B2
# Assay: TAP pull-down interactome analysis (LC-MS/MS)
# Conditions: with PDIA3 [human (endogenous in MCF-7 and MCF-12A)]; MCF-7 cells; read off a plot
row,Variant,screen value
1,chain 1 R161D,-1.5 log2
2,chain 1 I103K,-0.07 log2

# Now from value to variant:
row,screen value,Variant
1,-0.1 log2,chain 1 R193D
2,-0.62 log2,chain 1 R162E
